Key:
LacR = settings: modified LacR DNA response sequence SEQ ID NO:35
p50 NF-κB = assay: Gel mobility shift assay, displacement of p50 NF-kB; format: binding; settings: JF102 oligonucleotide
Excerpt: A purified Thioredoxin-p50 NF-kB fusion protein (p50C) (Genelabs Technologies, Inc.) was used to generate five oligonucleotides comprising an NF-kB DNA response element and one or two overlapping binding sites for the AT-rich binder, 21x.
The exemplified NF-kB binding sites, […] (SEQ ID NO:29) and […] (SEQ ID NO:30) are present in the Igk and IL-6 promoters, respectively.
Oligonucleotides JF101 (SEQ ID NO:31) and 102 (SEQ ID NO:32), have compound binding sequences overlapping the right side of the NF-kB DNA response element, while in the case of JF103 (SEQ ID NO:33), the overlaps are from both sides (FIG. 7).

[1] = test system: UL9-KRAB chimeric repressor (ULKRAB) (Herpes simplex virus type 1?); assay: cell_activity; settings: 0.8 to 1 ug pULKRAB
[2] = test system: UL9-VP16 chimeric activator (ULVP) (Herpes simplex virus type 1?); assay: cell_activity; settings: 25 ng pULVP, HeLa
[3] = target: T1, GST-UL9 (UL9 C-terminal DNA-binding domain) (Herpes simplex virus type 1?, UniProt P10193 P10193:535-851); assay: EMSA; 10 nM GST-UL9; 21x displacement most efficient with overlap at 3' end of site; settings: tags: GST fusion, pGEX-UL9 (Genelabs); label: 32P
T1 sequence (P10193 535-851, one chain of several): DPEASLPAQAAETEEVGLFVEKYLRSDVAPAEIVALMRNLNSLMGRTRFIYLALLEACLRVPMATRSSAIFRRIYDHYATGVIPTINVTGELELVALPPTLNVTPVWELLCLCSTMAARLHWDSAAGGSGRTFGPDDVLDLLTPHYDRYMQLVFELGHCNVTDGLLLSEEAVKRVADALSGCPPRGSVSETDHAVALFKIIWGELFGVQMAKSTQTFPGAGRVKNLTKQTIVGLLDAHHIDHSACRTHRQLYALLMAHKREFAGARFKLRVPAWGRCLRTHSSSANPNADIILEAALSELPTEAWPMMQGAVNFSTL

LacR (lac repressor) [4] = target: T2, LacR (lac repressor) (UniProt P03023 P03023:1-360); assay: EMSA; displaced by 21x more efficiently than by IPTG; settings: chain copies: 4; label: 32P
T2 sequence (P03023 whole entry, the tested form may be a part, one chain of several): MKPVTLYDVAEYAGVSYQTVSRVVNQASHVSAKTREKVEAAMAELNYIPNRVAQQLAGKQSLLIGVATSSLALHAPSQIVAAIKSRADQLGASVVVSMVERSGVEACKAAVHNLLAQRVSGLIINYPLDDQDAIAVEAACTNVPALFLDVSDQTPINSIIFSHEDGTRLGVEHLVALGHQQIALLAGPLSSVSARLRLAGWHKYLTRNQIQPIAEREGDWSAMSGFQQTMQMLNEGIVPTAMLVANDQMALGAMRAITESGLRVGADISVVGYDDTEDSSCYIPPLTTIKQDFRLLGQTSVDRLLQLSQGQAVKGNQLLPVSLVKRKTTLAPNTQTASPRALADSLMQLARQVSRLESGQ

[5] = target: T1, GST-UL9 (UL9 C-terminal DNA-binding …); assay: EMSA; 10 nM GST-UL9, 20 mM HEPES pH 7.5, 50 mM KCl, RT; displaced by 21x; settings: tags: GST fusion, pGEX-UL9 (Genelabs); label: 32P
LacR (lac repressor) [6] = target: T2, LacR (lac repressor); assay: EMSA; displaced by 21x; settings: chain copies: 4; label: 32P

CC(C)S[C@@H]1O[C@H](CO)[C@H](O)[C@H](O)[C@H]1O [IPTG]
LacR displacement efficiency, 21x versus IPTG (LacR): 21x appears to displace LacR more efficiently than IPTG

Cn1cc(NC(=O)c2cc(NC(=O)c3cc(NC=O)cn3C)cn2C)cc1C(=O)NCCC(=N)N [distamycin]
NF-kB displacement efficiency, 21x versus distamycin (p50 NF-κB): 21x displaces NF-kB more efficiently than distamycin

p5Gal/p5GalE GAL4 response element (5 tandem repeats)
activity ([1]; p5GalE control): 62 % of basal
activity ([2]; p5Gal, not activated significantly): 2 fold

p5UL/p5ULE UL9-21x response element (5 tandem repeats)
activity ([1]; p5ULE, HeLa): 5 % of basal
activity ([2]; p5UL): 24 fold

B1: YK 202RX-A (dsDNA)
DNA 1: CATGGACGCCACTGAGCCGTGTTCGCACTTTTTTTTGAGGCGAGTCGATGCACC
DNA 2: GGTGCATCGACTCGCCTCAAAAAAAAGTGCGAACACGGCTCAGTGGCGTCCATG
binding result [3]: binds

B2: lacO modified (dsDNA)
DNA 1: TTTTTTTTGTGAGCGGATAACAAAA
DNA 2: TTTTGTTATCCGCTCACAAAAAAAA
binding result (LacR (lac repressor) [4]): binds

B3: YK 202LX (dsDNA)
DNA 1: CATGGACGCCACTGAGCCGTTTTTGTTCGCACTTGAGGCGAGTCGATGCACC
DNA 2: GGTGCATCGACTCGCCTCAAGTGCGAACAAAAACGGCTCAGTGGCGTCCATG
binding result [5]: binds

B4: YK 202RX (dsDNA)
DNA 1: CATGGACGCCACTGAGCCGTTTTTGTTCGCACTTTTTTTTGAGGCGAGTCGATGCACC
DNA 2: GGTGCATCGACTCGCCTCAAAAAAAAGTGCGAACAAAAACGGCTCAGTGGCGTCCATG
binding result [3]: binds

B5: lacO modified (symmetric) (dsDNA)
DNA 1: AAAAAATTGTGAGCGCTCACAATTTTTT
DNA 2: AAAAAATTGTGAGCGCTCACAATTTTTT
binding result (LacR (lac repressor) [6]): binds

— patent publication US7189506B1, “DNA binding compound-mediated molecular switch system” (Genelabs Technologies, Inc.)
